Results: patent US20250197467A1 (BRIGHT PEAK THERAPEUTICS, published 2025)
Residue numbers refer to the chain shown, from its start.

T1: IL-18 receptor (IL-18Rαβ) on cells (UniProt Q13478 19-541; O95256 20-599, limits assumed)
T1 sequence (looked up) 1: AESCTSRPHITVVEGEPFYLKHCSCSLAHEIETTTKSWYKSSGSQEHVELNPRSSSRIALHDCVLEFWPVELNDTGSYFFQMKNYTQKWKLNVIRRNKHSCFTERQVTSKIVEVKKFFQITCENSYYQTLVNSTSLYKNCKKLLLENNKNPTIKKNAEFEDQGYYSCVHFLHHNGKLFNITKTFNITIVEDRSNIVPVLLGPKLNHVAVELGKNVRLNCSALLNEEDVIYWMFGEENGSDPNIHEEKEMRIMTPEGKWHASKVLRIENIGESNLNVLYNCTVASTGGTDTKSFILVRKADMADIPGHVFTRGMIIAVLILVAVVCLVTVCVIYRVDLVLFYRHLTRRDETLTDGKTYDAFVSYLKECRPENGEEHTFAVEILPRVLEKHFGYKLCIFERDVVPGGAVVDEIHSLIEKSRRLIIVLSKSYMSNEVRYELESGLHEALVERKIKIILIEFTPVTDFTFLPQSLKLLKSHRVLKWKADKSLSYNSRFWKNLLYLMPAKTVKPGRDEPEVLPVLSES
T1 sequence (looked up) 2: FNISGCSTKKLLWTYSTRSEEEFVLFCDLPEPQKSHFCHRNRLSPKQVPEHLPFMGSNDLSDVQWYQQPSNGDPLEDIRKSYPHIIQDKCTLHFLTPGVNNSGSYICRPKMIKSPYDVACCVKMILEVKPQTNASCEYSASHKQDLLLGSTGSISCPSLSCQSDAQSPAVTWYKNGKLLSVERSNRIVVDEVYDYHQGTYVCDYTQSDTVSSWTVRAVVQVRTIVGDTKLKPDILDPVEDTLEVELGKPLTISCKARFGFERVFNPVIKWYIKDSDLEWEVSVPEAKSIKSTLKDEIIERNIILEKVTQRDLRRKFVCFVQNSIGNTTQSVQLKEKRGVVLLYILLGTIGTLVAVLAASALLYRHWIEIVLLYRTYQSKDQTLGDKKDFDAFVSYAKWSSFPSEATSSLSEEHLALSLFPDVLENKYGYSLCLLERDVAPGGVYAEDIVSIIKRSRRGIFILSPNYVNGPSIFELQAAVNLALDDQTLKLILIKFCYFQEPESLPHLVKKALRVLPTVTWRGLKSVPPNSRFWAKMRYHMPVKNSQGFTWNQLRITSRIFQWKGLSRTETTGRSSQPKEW

T2: IL-18 receptor alpha subunit (Biotinylated for capture on streptavidin (SAX2) biosensors. The site and tag are not given in the patent.)
T2 construct: also called IL18 receptor alpha (Acro, IL1-H82E7); IL-18Ra
T2 chain: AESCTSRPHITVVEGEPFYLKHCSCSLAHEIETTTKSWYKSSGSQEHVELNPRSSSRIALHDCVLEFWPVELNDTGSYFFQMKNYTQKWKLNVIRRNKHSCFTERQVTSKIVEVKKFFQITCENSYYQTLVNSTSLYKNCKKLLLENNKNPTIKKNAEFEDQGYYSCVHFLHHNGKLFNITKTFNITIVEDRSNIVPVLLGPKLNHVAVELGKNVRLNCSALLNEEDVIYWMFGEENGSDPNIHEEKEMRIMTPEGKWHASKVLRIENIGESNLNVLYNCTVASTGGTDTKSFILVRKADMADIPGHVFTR

B1: C136 (ligand)
chain: YFGKLKSKLSIIRNLNDQVLFIDQGNRPLFEDMTDSDARDNAPRTIFIISMYADSQPRGMAVAISVKCEKISTLSAENKIISFKEMNPPDNIKDTKSDIIFFQRSVPGHDNKMQFESSSYEGYFLAAEKERDLFKLILKKEDELGDRSIMFTVQNEGGSGGSNIVPVLLGPKLNHVAVELGKNVRLNCSALLNEEDVIYWMFGEENGSDPNIHEEKEMRIMTPEGKWHASKVLRIENIGESNLNVLYNCTVASTGGTDTKSFILVRKADHHHHHH
B2: C172 (ligand)
chain: YFGKLKSKLSIIRNLNDQVLFIDQGNRPLFEDMTDSDARDNAPRTIFIISMYADSQPRGMAVAISVKCEKISTLSAENKIISFKEMNPPDNIKDTKSDIIFFQRSVPGHDNKMQFESSSYEGYFLAAEKERDLFKLILKKEDELGDRSIMFTVQNESGGPGPAGMKGLPGSNIVPVLLGPKLNHVAVELGKNVRLNCSALLNEEDVIYWMFGEENGSDPNIHEEKEMRIMTPEGKWHASKVLRIENIGESNLNVLYNCTVASTGGTDTKSFILVRKADHHHHHH
B3: C189 (ligand)
chain: B2 chain with N196D, N215D, N257D
B4: C137 (ligand)
chain: B2 chain with S157G, P160G, G161S, P162G, A163G, M165G, K166S, L168G, P169G
B5: C190 (ligand)
chain: MAAEPVEDNCINFVAMKFIDNTLYFIAEDDENLESDYFGKLKSKLSIIRNLNDQVLFIDQGNRPLFEDMTDSDARDNAPRTIFIISMYADSQPRGMAVAISVKCEKISTLSAENKIISFKEMNPPDNIKDTKSDIIFFQRSVPGHDNKMQFESSSYEGYFLAAEKERDLFKLILKKEDELGDRSIMFTVQNED
B6: C190 + MMP9 (ligand)
chain: B5 chain
B7: C191 (ligand)
chain: YFGKLKSKLSIIRNLNDQVLFIDQGNRPLFEDMTDSDARDNAPRTIFIISMYADSQPRGMAVAISVKCEKISTLSAENKIISFKEMNPPDNIKDTKSDIIFFQRSVPGHDNKMQFESSSYEGYFLAAEKERDLFKLILKKEDELGDRSIMFTVQNESGGPLGLAGGSNIVPVLLGPKLNHVAVELGKNVRLNCSALLNEEDVIYWMFGEENGSDPNIHEEKEMRIMTPEGKWHASKVLRIENIGESNLNVLYNCTVASTGGTDTKSFILVRKADHHHHHH
B8: C086 (SEQ ID NO: 30) (ligand)
chain: YFGKLKSKLSIIRNLNDQVLFIDQGNRPLFEDMTDSDARDNAPRTIFIISMYADSQPRGMAVAISVKCEKISTLSAENKIISFKEMNPPDNIKDTKSDIIFFQRSVPGHDNKMQFESSSYEGYFLAAEKERDLFKLILKKEDELGDRSIMFTVQNED
B9: C185 (ligand)
chain: MAAEPVEDNCINFVAMKFIDNTLYFIAEDDENLESDPLGYFGKLKSKLSIIRNLNDQVLFIDQGNRPLFEDMTDSDARDNAPRTIFIISMYADSQPRGMAVAISVKCEKISTLSAENKIISFKEMNPPDNIKDTKSDIIFFQRSVPGHDNKMQFESSSYEGYFLAAEKERDLFKLILKKEDELGDRSIMFTVQNED
B10: C127 (ligand)
chain: MAAEPVEDNCINFVAMKFIDNTLYFIAEDDENLESDSGGPGPAGMKGLPGSYFGKLKSKLSIIRNLNDQVLFIDQGNRPLFEDMTDSDARDNAPRTIFIISMYADSQPRGMAVAISVKCEKISTLSAENKIISFKEMNPPDNIKDTKSDIIFFQRSVPGHDNKMQFESSSYEGYFLAAEKERDLFKLILKKEDELGDRSIMFTVQNED

Molecular target: T1, IL-18 receptor (IL-18Rαβ) on cells
Assay: cell-based or functional assay

Compared with B1, B2 is higher in “Fold potency loss vs C086” value: 21 fold for the first, 26 fold for the second.

Going from B3 to B4, the “Fold potency loss vs C086” value rises from 10 fold to 49 fold.

First: B7
Second: B9
The “Fold potency loss vs C086” value of the first is lower: 48 fold for the first, 60900 fold for the second.

For B10, the “Fold potency loss vs C086” value was 7000 fold.

B1 and B2 are within 1.5-fold of each other in “HEK-blue EC50” value: 0.884 nM for the first, 1.09 nM for the second.

First: B3
Second: B4
The “HEK-blue EC50” value of the first is 4.8-fold lower: 0.43 nM for the first, 2.08 nM for the second.

Compared with B5, B6 is 2-fold lower in “HEK-blue EC50” value: 404 nM for the first, 198 nM for the second.

First: B7
Second: B8
The “HEK-blue EC50” value of the first is 50-fold higher: 2.02 nM for the first, 0.04 nM for the second.

Compared with B9, B10 is 8.7-fold lower in “HEK-blue EC50” value: 2560 nM for the first, 295 nM for the second.

Molecular target: T1, IL-18 receptor (IL-18Rαβ) on cells
Assay: cell-based or functional assay
Remark: another data set of the same source

Compared with B8, B9 is far higher in “IFNγ release NK-92 assay EC50” value: 0.0018 nM for the first, 210 nM for the second.

Molecular target: T1, IL-18 receptor (IL-18Rαβ) on cells
Assay: cell-based or functional assay
Remark: another data set of the same source

B1 and B2 are within 1.5-fold of each other in “Hek Blue reporter assay EC50” value: 0.884 pM for the first, 1.09 pM for the second.

Compared with B3, B4 is 4.8-fold higher in “Hek Blue reporter assay EC50” value: 0.43 pM for the first, 2.08 pM for the second.

Going from B5 to B6, the “Hek Blue reporter assay EC50” value falls from 404 pM to 198 pM (2-fold).

Going from B7 to B8, the “Hek Blue reporter assay EC50” value falls from 2.02 pM to 0.057 pM (35-fold).

Compared with B9, B10 is 9.5-fold lower in “Hek Blue reporter assay EC50” value: 2790 pM for the first, 295 pM for the second.

Molecular target: T1, IL-18 receptor (IL-18Rαβ) on cells
Assay: cell-based or functional assay
Remark: another data set of the same source

In the case of B8, the “IFNg release PBMCs assay EC50” value is reported as 0.0022 nM.

Molecular target: T1, IL-18 receptor (IL-18Rαβ) on cells
Assay: cell-based or functional assay
Remark: another data set of the same source

With B8 the “HEK-Blue IL-18R reporter EC50” value was 0.034 pM.

Molecular target: T2, IL-18 receptor alpha subunit
Assay: BLI (Octet R8), IL-18 receptor alpha on streptavidin (SAX2) biosensor, analyte 1000 nM to 1.25 nM in 1:3 dilutions
From the text: Act-IL18 candidates C185, C314, and C315 were digested as described above and characterized by BLI. Briefly, undigested and digested samples were compared for their binding against IL18 receptor on an Octet R8 (Sartorius).

B9: no binding.
